For assay [1], the target named is T1, human CD3 expressed on Jurkat cells (human, UniProt P07766 23-207).
T1 construct: CD3 complex on Jurkat cells (ATCC TIB-152); also called huCD3
The assay can be described thus: flow cytometry on Jurkat cells. The protocol: Binding of the different bispecific constructs to CD3 on Jurkat cells (ATCC #TIB-152), and the respective tumor antigen on target cells, was determined by FACS. Briefly, cells were harvested, counted and checked for viability. 0.15 - 0.2 million cells per well (in PBS containing 0.1% BSA; 90 µl) were plated in a round-bottom 96-well plate and incubated with the indicated concentration of the bispecific constructs and corresponding IgG controls (10 µl) for 30 min at 4° C. For a better comparison, all constructs and IgG controls were normalized to same molarity. After the incubation, cells were centrifuged (5 min, 350 × g), washed with 150 µl PBS containing 0.1% BSA, resuspended and incubated for further 30 min at 4° C. with 12 µl/well of a FITC-or PE-conjugated secondary antibody. Bound constructs were detected using a FACSCantoII (Software FACS Diva). The “(scFv)₂” molecule was detected using a FITC-conjugated anti-His antibody (Lucerna, #RHIS-45F-Z). For all other molecules, a FITC- or PE-conjugated AffiniPure F(ab′)2 Fragment goat anti-human IgG Fcγ Fragment Specific (Jackson Immuno Research Lab # 109-096-098 / working solution 1:20, or #109-116-170 / working solution 1:80, respectively) was used. Cells were washed by addition of 120 µl/well PBS containing 0.1% BSA and centrifugation at 350 × g for 5 min. A second washing step was performed with 150 µl/well PBS containing 0.1% BSA. Unless otherwise indicated, cells were fixed with 100 µl/well fixation buffer (BD #554655) for 15 min at 4° C. in the dark, centrifuged for 6 min at 400 × g and kept in 200 µl/well PBS containing 0.1% BSA until the samples were measured with FACS CantoII. EC50 values were calculated using the GraphPad Prism software.
(§1) As a control, the equivalent maximum concentration of the corresponding IgGs and the background staining due to the labeled 2ndary antibody (goat anti-human FITC-conjugated AffiniPure F(ab′)2 Fragment, Fcγ Fragment-specific, Jackson Immuno Research Lab # 109-096-098) were assessed as well.
A general note: In flow cytometry, cells or beads pass a laser one at a time.

Assay [2] addresses T2, human CEA expressed on tumor cells (human, UniProt P06731 35-702).
T2 construct: whole, on cells; also called Carcinoembryonic antigen; Carcinoembryonic antigen-related cell adhesion molecule 5
T2 sequence (looked up): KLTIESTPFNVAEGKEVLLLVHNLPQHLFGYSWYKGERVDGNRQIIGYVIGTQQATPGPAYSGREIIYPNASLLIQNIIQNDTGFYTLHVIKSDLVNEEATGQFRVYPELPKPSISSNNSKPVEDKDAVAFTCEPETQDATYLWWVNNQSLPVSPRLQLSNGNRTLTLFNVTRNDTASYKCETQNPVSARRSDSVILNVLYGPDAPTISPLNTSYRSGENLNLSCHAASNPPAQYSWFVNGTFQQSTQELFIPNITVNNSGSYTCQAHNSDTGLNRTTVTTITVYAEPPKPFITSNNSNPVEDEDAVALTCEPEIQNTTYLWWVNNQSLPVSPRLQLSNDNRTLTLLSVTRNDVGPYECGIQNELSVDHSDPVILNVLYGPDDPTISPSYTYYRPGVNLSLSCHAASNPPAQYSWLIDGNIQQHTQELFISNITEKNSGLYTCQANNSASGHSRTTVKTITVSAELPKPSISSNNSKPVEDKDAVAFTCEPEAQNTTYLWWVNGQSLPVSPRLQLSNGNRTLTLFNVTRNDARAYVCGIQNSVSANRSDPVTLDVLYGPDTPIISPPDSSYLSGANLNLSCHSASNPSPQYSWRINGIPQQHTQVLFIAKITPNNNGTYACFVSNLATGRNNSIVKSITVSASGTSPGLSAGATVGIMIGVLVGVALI
The assay can be described thus: flow cytometry on LS-174T cells. The protocol:
Binding of the different bispecific constructs to CD3 on Jurkat cells (ATCC #TIB-152), and the respective tumor antigen on target cells, was determined by FACS. Briefly, cells were harvested, counted and checked for viability. 0.15 - 0.2 million cells per well (in PBS containing 0.1% BSA; 90 µl) were plated in a round-bottom 96-well plate and incubated with the indicated concentration of the bispecific constructs and corresponding IgG controls (10 µl) for 30 min at 4° C. For a better comparison, all constructs and IgG controls were normalized to same molarity. […] Bound constructs were detected using a FACSCantoII (Software FACS Diva). The “(scFv)₂” molecule was detected using a FITC-conjugated anti-His antibody (Lucerna, #RHIS-45F-Z). […] Unless otherwise indicated, cells were fixed with 100 µl/well fixation buffer (BD #554655) for 15 min at 4° C. in the dark, centrifuged for 6 min at 400 × g and kept in 200 µl/well PBS containing 0.1% BSA until the samples were measured with FACS CantoII. EC50 values were calculated using the GraphPad Prism software.
as §1

Assay [3] concerns the target T2, human CEA expressed on tumor cells. Kind of assay: cell-based or functional assay.
In assay [4] the target is T3, Human EGFR (immobilized on CM5 sensor chip) (human, UniProt P00533 25-645, limits assumed).
T3 construct: 8000 RU immobilized by amine coupling; also called Epidermal Growth Factor Receptor
The assay can be described thus: SPR; construct (200 nM) captured on immobilized human EGFR, then CD3 fusion injected (FIG. 18A). The protocol:
(§2) Analysis of simultaneous binding of the T-cell bispecific constructs to the tumor antigen and the human CD3ε was performed by direct coupling of 1650 resonance units (RU) of biotinylated D3 domain of MCSP on a sensor chip SA using the standard coupling procedure. Human EGFR was immobilized using standard amino coupling procedure. 8000 RU were immobilized on a CM5 sensor chip at pH 5.5.
(§3) Different T-cell bispecific constructs were captured for 60 s at 200 nM. Human CD3γ(G₄S)₅CD3ε-AcTev-Fc(knob)-Avi/Fc(hole) was subsequently passed at a concentration of 2000 nM and a flow rate of 40 µl/min for 60 s. Bulk refractive index differences were corrected for by subtracting the response obtained on a reference flow cell where the recombinant CD3ε was flown over a surface with immobilized D3 domain of MCSP or EGFR without captured T-cell bispecific constructs.
(SPR reads the build-up and loss of mass on a sensor chip optically.)

The target of assay [5] is T3, Human EGFR (immobilized on CM5 sensor …). The assay can be described thus: SPR; construct (200 nM) captured on immobilized human EGFR, then CD3 fusion injected (FIG. 18B). The protocol:
as §2, §3

Assay [6] shares this target. The assay can be described thus: SPR; construct (200 nM) captured on immobilized human EGFR, then CD3 fusion injected (FIG. 18D). As for the experimental part:
as §2, §3

Assay [7] has the same target. The assay can be described thus: SPR; construct (200 nM) captured on immobilized human EGFR, then CD3 fusion injected (FIG. 18C). The protocol: as §2, §3

T1 sequence (P07766 23-207 limits assumed): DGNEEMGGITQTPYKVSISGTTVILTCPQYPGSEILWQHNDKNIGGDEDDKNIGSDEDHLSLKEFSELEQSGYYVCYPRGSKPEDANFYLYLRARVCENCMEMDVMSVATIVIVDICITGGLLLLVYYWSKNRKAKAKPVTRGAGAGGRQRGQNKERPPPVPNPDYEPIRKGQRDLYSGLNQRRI

B1: CEA/CD3 “2+1 IgG Crossfab, inverted (CL/CH1)”; CL/CH1 exchange (CH1A1A/V9) (bispecific antibody)
heavy 1: not shown
heavy 2: QVQLVQSGAEVKKPGASVKVSCKASGYTFTEFGMNWVRQAPGQGLEWMGWINTKTGEATYVEEFKGRVTFTTDTSTSTAYMELRSLRSDDTAVYYCARWDFAYYVEAMDYWGQGTTVTVSSASTKGPSVFPLAPSSKSTSGGTAALGCLVKDYFPEPVTVSWNSGALTSGVHTFPAVLQSSGLYSLSSVVTVPSSSLGTQTYICNVNHKPSNTKVDKKVEPKSCDKTHTCPPCPAPEAAGGPSVFLFPPKPKDTLMISRTPEVTCVVVDVSHEDPEVKFNWYVDGVEVHNAKTKPREEQYNSTYRVVSVLTVLHQDWLNGKEYKCKVSNKALGAPIEKTISKAKGQPREPQVCTLPPSRDELTKNQVSLSCAVKGFYPSDIAVEWESNGQPENNYKTTPPVLDSDGSFFLVSKLTVDKSRWQQGNVFSCSVMHEALHNHYTQKSLSLSPGK
light 1: DIQMTQSPSSLSASVGDRVTITCKASAAVGTYVAWYQQKPGKAPKLLIYSASYRKRGVPSRFSGSGSGTDFTLTISSLQPEDFATYYCHQYYTYPLFTFGQGTKLEIKRTVAAPSVFIFPPSDEQLKSGTASVVCLLNNFYPREAKVQWKVDNALQSGNSQESVTEQDSKDSTYSLSSTLTLSKADYEKHKVYACEVTHQGLSSPVTKSFNRGEC
light 2: DIQMTQSPSSLSASVGDRVTITCRASQDIRNYLNWYQQKPGKAPKLLIYYTSRLESGVPSRFSGSGSGTDYTLTISSLQPEDFATYYCQQGNTLPWTFGQGTKVEIKSSASTKGPSVFPLAPSSKSTSGGTAALGCLVKDYFPEPVTVSWNSGALTSGVHTFPAVLQSSGLYSLSSVVTVPSSSLGTQTYICNVNHKPSNTKVDKKVEPKSC
notes: 66 is the DNA of 65; also called CL/CH1-exchange construct
As a reminder, the EC50 is the midpoint of the concentration-response curve. Higher therefore signals a less potent agent. Regarding B1, the midpoint of the response in assay [1], the EC50, lay at 3.9 nM. The EC50 in assay [2] was 6.7 nM. For the same molecule, in assay [3], the “EC50 of killing (LDH release) of LS-174T cells, human PBMCs, E:T 10:1, 28 h” value was 0.673 nM and the “EC50 of killing (LDH release) of MKN-45 cells, human PBMCs, E:T 10:1, 28 h” value was 0.115 nM.

B2: CEA/CD3 “2+1 IgG Crossfab, inverted (VL/VH)”; VL/VH exchange (CH1A1A/V9) (bispecific antibody)
heavy 1: not shown
heavy 2: B1 heavy 2
light 1: B1 light 1
light 2: EVQLVESGGGLVQPGGSLRLSCAASGYSFTGYTMNWVRQAPGKGLEWVALINPYKGVSTYNQKFKDRFTISVDKSKNTAYLQMNSLRAEDTAVYYCARSGYYGDSDWYFDVWGQGTLVTVSSASVAAPSVFIFPPSDEQLKSGTASVVCLLNNFYPREAKVQWKVDNALQSGNSQESVTEQDSKDSTYSLSSTLTLSKADYEKHKVYACEVTHQGLSSPVTKSFNRGEC
notes: also called VL/VH-exchange construct
As to B2, the EC50 amounted to 4.6 nM in assay [1] and 9.3 nM in assay [2]. In addition, the “EC50 of killing (LDH release) of LS-174T cells, human PBMCs, E:T 10:1, 28 h” value in assay [3] is 0.955 nM. Moreover, the “EC50 of killing (LDH release) of MKN-45 cells, human PBMCs, E:T 10:1, 28 h” value in assay [3] was 0.243 nM.

B3: “2+1 IgG scFab, P329G LALA” (anti-EGFR/anti-huCD3) (bispecific antibody)
heavy 1: not shown
heavy 2: QVQLVQSGAEVKKPGSSVKVSCKASGFTFTDYKIHWVRQAPGQGLEWMGYFNPNSGYSTYAQKFQGRVTITADKSTSTAYMELSSLRSEDTAVYYCARLSPGGYYVMDAWGQGTTVTVSSASTKGPSVFPLAPSSKSTSGGTAALGCLVKDYFPEPVTVSWNSGALTSGVHTFPAVLQSSGLYSLSSVVTVPSSSLGTQTYICNVNHKPSNTKVDKKVEPKSCDKTHTCPPCPAPEAAGGPSVFLFPPKPKDTLMISRTPEVTCVVVDVSHEDPEVKFNWYVDGVEVHNAKTKPREEQYNSTYRVVSVLTVLHQDWLNGKEYKCKVSNKALGAPIEKTISKAKGQPREPQVCTLPPSRDELTKNQVSLSCAVKGFYPSDIAVEWESNGQPENNYKTTPPVLDSDGSFFLVSKLTVDKSRWQQGNVFSCSVMHEALHNHYTQKSLSLSPGK
light: DIQMTQSPSSLSASVGDRVTITCRASQGINNYLNWYQQKPGKAPKRLIYNTNNLQTGVPSRFSGSGSGTEFTLTISSLQPEDFATYYCLQHNSFPTFGQGTKLEIKRTVAAPSVFIFPPSDEQLKSGTASVVCLLNNFYPREAKVQWKVDNALQSGNSQESVTEQDSKDSTYSLSSTLTLSKADYEKHKVYACEVTHQGLSSPVTKSFNRGEC
On to B3, for which the binding result in assay [4] is “binds”.

B4: “1+1 IgG scFab, one armed” (anti-EGFR/anti-huCD3) (bispecific antibody)
heavy 1: not shown
heavy 2: B3 heavy 2
light: B3 light
For the molecule B4, in assay [5], the binding result is “binds”.

B5: “1+1 IgG scFab” (anti-EGFR/anti-huCD3) (bispecific antibody)
heavy: not shown
chain: DKTHTCPPCPAPEAAGGPSVFLFPPKPKDTLMISRTPEVTCVVVDVSHEDPEVKFNWYVDGVEVHNAKTKPREEQYNSTYRVVSVLTVLHQDWLNGKEYKCKVSNKALGAPIEKTISKAKGQPREPQVCTLPPSRDELTKNQVSLSCAVKGFYPSDIAVEWESNGQPENNYKTTPPVLDSDGSFFLVSKLTVDKSRWQQGNVFSCSVMHEALHNHYTQKSLSLSPGK
light: B3 light
Turning to B5, in assay [6], the binding result is recorded as “binds”.

B6: “1+1 IgG scFab, one armed inverted” (anti-EGFR/anti-huCD3) (bispecific antibody)
heavy 1: not shown
heavy 2: EVQLVESGGGLVQPGGSLRLSCAASGYSFTGYTMNWVRQAPGKGLEWVALINPYKGVSTYNQKFKDRFTISVDKSKNTAYLQMNSLRAEDTAVYYCARSGYYGDSDWYFDVWGQGTLVTVSSASTKGPSVFPLAPSSKSTSGGTAALGCLVKDYFPEPVTVSWNSGALTSGVHTFPAVLQSSGLYSLSSVVTVPSSSLGTQTYICNVNHKPSNTKVDKKVEPKSCDKTHTCPPCPAPEAAGGPSVFLFPPKPKDTLMISRTPEVTCVVVDVSHEDPEVKFNWYVDGVEVHNAKTKPREEQYNSTYRVVSVLTVLHQDWLNGKEYKCKVSNKALGAPIEKTISKAKGQPREPQVCTLPPSRDELTKNQVSLSCAVKGFYPSDIAVEWESNGQPENNYKTTPPVLDSDGSFFLVSKLTVDKSRWQQGNVFSCSVMHEALHNHYTQKSLSLSPGK
light: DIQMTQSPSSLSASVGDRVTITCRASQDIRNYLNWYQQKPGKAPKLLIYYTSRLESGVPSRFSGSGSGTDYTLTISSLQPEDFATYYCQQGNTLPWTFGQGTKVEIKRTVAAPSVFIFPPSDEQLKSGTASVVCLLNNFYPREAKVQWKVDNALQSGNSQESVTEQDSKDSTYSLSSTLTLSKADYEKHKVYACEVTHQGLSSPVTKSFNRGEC
Regarding B6, the binding result in assay [7] is “binds”.
